Reference: PMC5932034

Tests used:
[1] = target: fused FliS−FliC^C construct (FliC^C fused to the C terminus of FliS) (UniProt P06179); test: ITC; conditions: read off a plot
[2] = target: cytoplasmic domain of Salmonella enterica serovar Typhimurium FlhA (FlhA^C) (Salmonella enterica serovar Typhimurium ST313) (UniProt P40729); test: ITC; FlhA^C and variants (0.1–0.2 mM) in the cell, FliT-FliD, FliS-FliC and variants (1.0–2.0 mM) in the syringe; 25 °C; 50 mM NaPi pH 6.8, 300 mM NaCl, 0.05% NaN3; one-site binding model
[3] = target: cytoplasmic domain of Salmonella enterica serovar Typhimurium FlhA (FlhA^C) (UniProt P40729); test: ITC; conditions: read off a plot

Row | Substance | Kd [2] | ratio to parent [3] | other results
1 | cytoplasmic domain of Salmonella enterica serovar Typhimurium FlhA (FlhA^C) (from UniProt P40729) L476A |  |  | ratio to parent [1]: 8 fold
2 | fused FliS−FliC^C construct (FliC^C fused to the C terminus of FliS) (from UniProt P06179 454-495) | 10 µM |  | 
3 | fused FliT−FliD^C construct (FliD^C fused to the N terminus of FliT) (from UniProt P16328) | 20 µM |  | 
4 | fused FliT−FliD^C construct (FliD^C fused to the N terminus of FliT) (from UniProt P16328) I93D |  | 3.3 fold | 
5 | fused FliT−FliD^C construct (FliD^C fused to the N terminus of FliT) (from UniProt P16328) R98D |  | 4.5 fold | 
